Data taken from patent US20120172306A1, “Use of HASF as a Protective Agent Against Ischemic Tissue Damage” (Duke University, priority 2009, published 2012).

Key:
[1] = system: rat myocardial infarction; experiment: In vivo ischemia/reperfusion injury, infarct size (TTC/Evans Blue); conditions: 1 μg intramyocardial injection, 30 min ischemia, 24 h reperfusion
Procedure: FIG. 5A is a series of photographs and a bar graph showing infarct area. Rats were randomly divided into PBS control group and HASF injected group, n=10 for each group. The reperfusion injury model was achieved by 30 min coronary ligation with the immediate injection of vehicle PBScontrol or 1 μg of […] recombinant protein into the myocardium area below ligation suture, followed by loosening of the ligation suture to achieve reperfusion injury. […] The mean of % of infarct area for all sections of each heart was calculated blindly for comparisons using ImageJ computer software. Representative photos from each group are shown.
Female Sprague-Dawley rats were used for all in vivo experiments. A midsternal thoracotomy was performed to expose the anterior surface of the heart after anesthesia. […]
For analysis of infarct size, 24 h after reperfusion, the LAD was re-ligated and ˜300 μl of 1% Evans Blue in PBS (pH 7.4) was retrogradely infused into the heart in a 2-3 min period to delineate the non-ischemic area. […] Area at risk (AAR) was calculated as the left ventricular total area excluding Evans Blue dye positive area, and % infarct area was calculated as the % of infarct area/AAR. The mean of % of infarct area for all sections of each heart was calculated blindly for comparisons using ImageJ computer software, with 10 rats in each group.

[2] = system: rat myocardial infarction; experiment: In vivo ischemia/reperfusion injury, fibrosis (Masson's trichrome); conditions: 1 μg intramyocardial, 4 weeks after ischemia/reperfusion
Procedure: FIG. 5C is a series of photographs and a bar graph showing fibrosis. For fibrosis analysis, animals were sacrificed 4 weeks after the initial ischemia/reperfusion injury and serial cryosections of 5 μm thick were made immediately below the ligation area, 10 sections for each heart were analyzed. HASF injected group N=8 rats. PBS injected control group N=6. Brilliant blue color stained collagen area was quantified using ImageJ computer software and the mean of % fibrosis was calculated as collagen positive area/total area. *** P<0.001.
Female Sprague-Dawley rats were used for all in vivo experiments. A midsternal thoracotomy was performed to expose the anterior surface of the heart after anesthesia. The proximal left […] coronary artery (LAD) was identified and a 6.0 suture (Ethicon) was placed around the artery and surrounding myocardium. […]
For fibrosis analysis, animals were sacrificed 4 weeks after the initial 30 min ischemia/24 h reperfusion injury and serial cyrosections of 5 μm thick were made immediately below the ligation area, 10 sections for each heart analyzed, and with 8 rats in HASF protein injected group and 6 rats in PBS injected control group. […] Brilliant blue color stained collagen area was quantified using ImageJ computer software and the mean of % fibrosis was calculated as collagen positive area/total area.

adult rat cardiomyocytes = experiment: Caspase-Glo 9 and 3/7 assays of H2O2 induced apoptosis; type: cell-based; conditions: 10 nM for 30 min, 100 μM H2O2, 5 h
Procedure: FIGS. 2B and 2C are bar graphs showing relative caspase activity. Adult rat cardiomyocytes were freshly isolated and treated ±10 nM of HASF for 30 min, and then challenged with 100 μM of H2O2 for various time points. H2O2 induced apoptosis in cardiomyocytes was evidenced by the dynamic increase in the activities of the initiator Caspase 9 and effector Caspase […] at 5 h, 7 h and 9 h respectively. Y axis represent the relative amount of luminescence indicating the relative amount of active Caspase activities. ** P<0.01 and *** P<0.001. Data are presented as means±standard deviation of triplicates.
FIG. 3C is a bar graph showing fold-change in caspase activity. Serum-starved adult rat cardiomyocytes were treated with 3 μM PKC inhibitors or vehicle DMSO for 30 minutes, then 100 nM HASF recombinant protein was added for 30 minutes followed by treatment with 200 μM H2O2 for 3 hours. Apoptosis was determined by detection of Caspase-9 activity using a homogeneous luminescent assay. All samples were measured in triplicates. *P<0.05 vs. non-HASF treated cells.
FIG. 4C is a bar graph showing relative caspase activity in adult cardiomyocytes. Apoptosis as determined by detection of Caspase-9 activity on adult rat cardiomyocytes pre-treated with 178 μM PKC translocation inhibitor peptide for 10 minutes and then with 100 nM of HASF for 30 minutes. Thereafter, cells were challenged with 200 μM H2O2 for 3 hours. All samples were measured in triplicates. *P <0.05 vs. non-HASF treated cells and the experiment was repeated multiple times.
Adult rat ventricular cardiomyocytes were isolated from 6 weeks old female Sprague-Dawley rat (Harlan World Headquarters, Indianapolis, Ill., USA) hearts by enzymatic digestion and were seeded in (6-well) plates or Delta T culture dishes (Bioptechs, Inc., Pa.) pre-coated with 1 μg/cm2 of laminin (Sigma) at 5×10^4/well and cultured overnight in serum-free M199 medium (Sigma), supplemented with 2 mM of L-carnitine, 5 mM of creatine, 5 mM of taurine, 0.2% of albumin, 100 U/ml of penicillin and 100 μg/ml of streptomycin. […]

B1: HASF: Hypoxia regulated Akt MSC Factor, secreted protein encoded by C3orf58; recombinant human protein without N-signal sequence, SEQ ID NO:1 or 2 (protein, UniProt Q8NDZ4 36-430, looked up)
Divergent protein kinase …: LASWQRNELTDRRFLQLNKCPACFGTSWCRRFLNGQVVFEAWGRLRLLDFLNVKNVYFAQYGEPREGGRRRVVLKRLGSQRELAQLDQSICKRATGRPRCDLLQAMPRTEFARLNGDVRLLTPEAVEGWSDLVHCPSQRLLDRLVRRYAETKDSGSFLLRNLKDSERMQLLLTLAFNPEPLVLQSFPSDEGWPFAKYLGACGRMVAVNYVGEELWSYFNAPWEKRVDLAWQLMEIAEQLTNNDFEFALYLLDVSFDNFAVGPRDGKVIIVDAENVLVADKRLIRQNKPENWDVWYESKFDDCDKEACLSFSKEILCARATVDHNYYAVCQNLLSRHATWRGTSGGLLHDPPSEIAKDGRLEALLDECANPKKRYGRFQAAKELREYLAQLSNNVR
modifications: 6xHis tag
reduction in the infarct size [1]: ~58%
reduction of infarct fibrosis compared to control untreated animals [2]: 61%
scar (myocardial fibrosis) [2]: 5.7±1.5 % of LV area
reduction of Caspase 3/7 (adult rat cardiomyocytes): ~45%
reduction of Caspase 9 (adult rat cardiomyocytes): ~38%
